Reference: PMC3585964, “Tissue Inhibitor of Metalloproteinases-3 Peptides Inhibit Angiogenesis and Choroidal Neovascularization in Mice” (PLoS ONE, 2013)
Entries after “also recorded” stand apart in the source; their conditions may differ. Like-named read-outs stand apart in the source and are kept apart here. Ends that are not written are not given here. Peptide text beside a SMILES is read from it.

What was measured:
[1] = target: VEGFR-2 (KDR/Fc chimera) binding to VEGF (Homo sapiens, UniProt P35968); assay: Competitive ELISA, binding of sVEGFR-2/Fc to immobilized VEGF
VEGFR-2 (KDR/Fc chimera) binding to VEGF, sequence (P35968 with tags, fused parts or gaps limits assumed): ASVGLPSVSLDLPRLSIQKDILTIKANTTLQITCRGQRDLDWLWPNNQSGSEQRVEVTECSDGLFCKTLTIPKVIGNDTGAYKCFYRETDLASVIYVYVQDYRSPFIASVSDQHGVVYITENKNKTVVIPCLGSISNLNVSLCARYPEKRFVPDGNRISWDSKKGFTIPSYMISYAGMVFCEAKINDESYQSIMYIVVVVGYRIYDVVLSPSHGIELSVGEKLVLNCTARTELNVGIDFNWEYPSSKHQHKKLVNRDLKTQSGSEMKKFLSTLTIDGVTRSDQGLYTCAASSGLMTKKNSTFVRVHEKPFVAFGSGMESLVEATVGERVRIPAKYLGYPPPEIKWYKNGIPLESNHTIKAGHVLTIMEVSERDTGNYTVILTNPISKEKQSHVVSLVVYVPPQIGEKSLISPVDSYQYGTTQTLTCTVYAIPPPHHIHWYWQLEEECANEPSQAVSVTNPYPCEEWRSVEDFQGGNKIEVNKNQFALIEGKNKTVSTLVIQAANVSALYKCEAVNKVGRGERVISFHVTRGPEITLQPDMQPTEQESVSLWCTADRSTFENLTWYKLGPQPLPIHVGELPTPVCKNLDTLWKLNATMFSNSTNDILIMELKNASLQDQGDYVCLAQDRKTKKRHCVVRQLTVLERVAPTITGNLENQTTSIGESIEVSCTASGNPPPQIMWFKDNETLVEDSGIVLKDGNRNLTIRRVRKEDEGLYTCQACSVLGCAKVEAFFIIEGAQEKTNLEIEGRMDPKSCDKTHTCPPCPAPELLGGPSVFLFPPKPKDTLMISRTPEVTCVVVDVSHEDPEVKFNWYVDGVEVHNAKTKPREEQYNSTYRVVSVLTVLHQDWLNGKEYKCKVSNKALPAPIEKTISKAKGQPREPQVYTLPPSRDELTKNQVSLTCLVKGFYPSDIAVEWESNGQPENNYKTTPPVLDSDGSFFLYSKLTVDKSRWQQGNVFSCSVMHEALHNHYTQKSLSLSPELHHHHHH
Description: (§1) 96 well EIA/RIA strip plates (COSTAR) were coated with 80 ng/ml recombinant VEGF overnight at 4°C, washed and blocked with blocking buffer (1% BSA and 5% sucrose) overnight at 4°C. Series of dilutions were prepared for recombinant proteins representing WT-TIMP-3, NT2:CT3 and N-T3 in PBS or synthetic peptides corresponding to T3-loop 5, T3-loop 6, T3-N or T3-tail peptides in 0.5 M Tris-HCl (pH 7.5). The diluents were mixed with 50 ng/ml recombinant human VEGFR-2 (KDR/Fc chimera, recombinant human VEGFR-1 (Flt-1)/Fc chimera (R&D Systems, Minneapolis, MN) or control human lgG (Sigma Aldrich, St Louis, MO). The mixtures were then added to the VEGF-coated well in a final volume of 100 µL in PBS and incubated for 2 hours at room temperature. Bound VEGFR-2 was detected by HRP-conjugated anti-human lgG(Fc specific) (1∶1000).

[2] = system: angiogenesis; VEGF binding to VEGFR-2; conditions: cited from earlier work
Excerpt: Tissue inhibitors of metalloproteinases (TIMPs) constitute a family of four proteins (TIMP-1, TIMP-2, TIMP-3 and TIMP-4) that are endogenous inhibitors of […] and play a critical role in the maintenance of extracellular matrix (ECM) homeostasis. In general, all four TIMPs are broad-spectrum inhibitors of the MMP family, with some differences in specificity. […] Based on these studies we designed experiments t ... || Sorsby fundus dystrophy (SFD), an autosomal dominant, fully penetrant, degenerative disease of the macula, [25] is manifested by symptoms of night blindness or sudden loss of acuity, usually in the third to fourth decades of life due to submacular neovascularization, [27], [28], [29]. SFD is caused by specific mutations in the tissue inhibitor of metalloproteinases-3 (TIMP-3) gene, [31], [32], [33], [34], [35], [36], [37], most of which introduce an unpaired cysteine at the C-terminus of the protein. We have recently reported that S156C mutation in TI ...

[3] = system: VEGFR-1 (Flt-1)/Fc chimera binding to VEGF; assay: Competitive ELISA, binding of sVEGFR-1/Fc to immobilized VEGF; set-up: species or system human; conditions: 50 ng/ml sVEGFR-1 (sFlt-1)
Description: as §1

[4] = read-out: IC50, inhibition of VEGF binding to sVEGFR-2/Fc chimera (recombinant proteins), competitive ELISA, 50 ng/ml human VEGFR-2/Fc, plate coated with 80 ng/ml VEGF, 2 h room temperature, proteins in PBS

GYCSWYRGWAPPDKSIINATDP [T3-tail]
IC50 [1]: 5000 nM

CC[C@H](C)[C@H](NC(=O)[C@H](CS)NC(=O)[C@H](C)NC(=O)[C@H](Cc1ccc(O)cc1)NC(=O)[C@H](Cc1c[nH]cn1)NC(=O)[C@H](CCCCN)NC(=O)[C@H](CO)NC(=O)[C@H](CCC(N)=O)NC(=O)[C@H](Cc1ccc(O)cc1)NC(=O)CNC(=O)[C@@H]1CCCN1C(=O)[C@H](Cc1ccc(O)cc1)NC(=O)CNC(=O)[C@H](Cc1ccccc1)NC(=O)[C@H](CC(N)=O)NC(=O)[C@H](CO)NC(=O)[C@H](CC(C)C)NC(=O)[C@H](CCSC)NC(=O)[C@H](CC(=O)O)NC(=O)[C@@H](NC(=O)[C@H](Cc1c[nH]c2ccccc12)NC(=O)[C@H](CC(C)C)NC(=O)[C@H](CS)NC(=O)[C@H](CCC(=O)O)NC(=O)[C@H](CC(N)=O)NC(=O)[C@@H](N)CCCCN)[C@@H](C)O)C(=O)N[C@@H](CCCNC(=N)N)C(=O)N[C@@H](CCC(N)=O)C(=O)N[C@@H](CCCCN)C(=O)NCC(=O)O [T3-loop 6] (H-KNECLWTDMLSNFGYPGYQSKHYACIRQKG-OH)
IC50 [1]: 2000 nM

B1: NT2:CT3: NH2-terminal TIMP-2: COOH-terminal TIMP-3 chimera (residues 1–126 of TIMP-2 and residues 122–188 of TIMP-3) (protein)
chain: CSCSPVHPQQAFCNADVVIRAKAVSEKEVDSGNDIYGNPIKRIQYEIKQIKMFKGPEKDIEFIYTAPSSAVCGVSLDVGGKKEYLIAGKAEGDGKMHITLCDFIVPWDTLSTTQKKSLNHRYQMGCCKIKSCYYLPCFVTSKNECLWTDMLSNFGYPGYQSKHYACIRQKGGYCSWYRGWAPPDKSIINATDP
modifications: Limits are in mature numbering (TIMP-2 offset +26, TIMP-3 offset +23); Methods print TIMP-2 1-127 and Results print 1-126; the Methods limit i
IC50 [1, 4]: 28 nM

B2: S156C mutation in TIMP-3: TIMP-3 with the S156C mutation (Sorsby fundus dystrophy) (protein, UniProt P35625 24-211, looked up, variant S156C)
Metalloproteinase inhibitor 3: CTCSPSHPQDAFCNSDIVIRAKVVGKKLVKEGPFGTLVYTIKQMKMYRGFTKMPHVQYIHTEASESLCGLKLEVNKYQYLLTGRVYDGKMYTGLCNFVERWDQLTLSQRKGLNYRYHLGCNCKIKSCYYLPCFVTSKNECLWTDMLSNFGYPGYQCKHYACIRQKGGYCSWYRGWAPPDKSIINATDP
Effect of TIMP-3 mutation on angiogenesis (literature) ([2]; ref [18]): induces increased angiogenesis

B3: WT-TIMP-3: Full length, recombinant human TIMP-3 purified from stably transfected mouse myeloma cells (protein, UniProt P35625 1-211, looked up)
chain: MTPWLGLIVLLGSWSLGDWGAEACTCSPSHPQDAFCNSDIVIRAKVVGKKLVKEGPFGTLVYTIKQMKMYRGFTKMPHVQYIHTEASESLCGLKLEVNKYQYLLTGRVYDGKMYTGLCNFVERWDQLTLSQRKGLNYRYHLGCNCKIKSCYYLPCFVTSKNECLWTDMLSNFGYPGYQSKHYACIRQKGGYCSWYRGWAPPDKSIINATDP
modifications: full-length
notes: Full length, recombinant human TIMP-3 purified from stably transfected mouse myeloma cells
Effect of recombinant proteins on VEGF-VEGFR-2 complexes (in words) ([1]; competitive ELISA, 50 ng/ml sVEGFR-2, proteins in PBS): inhibit sVEGFR-2-VEGF complexes in a concentration-dependent manner; also recorded: markedly decreased | IC50 [1, 4]: 41 nM | Effect of recombinant proteins on VEGF binding to VEGFR-1 (in words) [3]: unable to block sVEGFR-1-VEGF complexes; also recorded: neither full length WT-TIMP-3 nor COOH-terminal TIMP-3 blocked the binding of VEGF to VEGFR1 | Blocking of VEGF binding to VEGFR-2 / angiogenesis inhibition (literature) ([2]; independent of MMP inhibitory activity, ref [8]): potent angiogenesis inhibitor | Inhibition of angiogenesis independent of MMP inhibition (literature) ([2]; ref [8], [21], [22]): Inhibition of angiogenesis
